Laboratory results reported in the DeepSol protein solubility set.

Assay: soluble on expression in E. coli; label from the status in PepcDB or PDB records

Sequence | soluble on expression in E. coli
DEPILSFSPKTYSFRQDGRIKEVSVFTYHKKYNPDKHYIYVVRILREGQIEPSFVFRTFDEFQELHNKLSIIFPLWKLPGFPNRMVLGRTHIKDVAAKRKIELNSYLQSLMNASTDVAECDLVCTFFHPLLRDEKAEGIA | soluble
DEQEKLLRLVDNSVELMSLLGTNNINSYINKAGMELLGFDTMEQVLRTPISELHLKEDFEKVSANVITSLQDKGRWSGQMNVRNLKSGEVIPVYNNTVRIDDPATGEILAFGAVMRDMR | not soluble
DIGCYTLGGFEPLNAIDTTICMGASIGMAHGFEMARGKEFAKKSVAVIGDSTFWHSGVTGLIDIVYNKGHSTVIILDNSITAMTGHQENPSTGKTLSGERTNQIDFEALGRSIGINRICVVDAYDLKALEETIKEEVNAEEPSLIITKRPCVLIKGAKFDFKDYKIDP | not soluble
DIISVALKRHSTKAFDASKKLTAEEAEKIKTLLQYSPSSTNSQPWHFIVASTEEGKARVAKSAAGTYVFNERKMLDASHVVVFCAKTAMDDAWLERVVDQEEADGRFNTPEAKAANHKGRTYFADMHRVDLKDDDQWMAKQVYLNVGNFLLGVGAMGLDAVPIEGFDAAILDEEFGLKEKGFTSLVVVPVGHHSVEDFNATLPKSRLPLSTIVTEC | soluble
DIQFSAGLFFQYNLSENFSLRIDPTFDRKGYQYKDITFTDNSGNILGTGKLYGHLDYITIPVLFKASVGNKVKYFVNAGPSIGLLLSETFIYDNPYGNGNQKTHNTNQYKKADAGITAGLGIAIPLGNAIALSFEVRNNVGLTNINKNSNANSAIHANTTSMLVGVAYKF | not soluble
DIQMTQSPSSLSASLGERVSLTCRASQDIGSKLYWLQQEPDGTFKRLIYATSSLDSGVPKRFSGSRSGSDYSLTISSLESEDFVDYYCLQYASSPYTFGGGTKLAIKRADAAPTVSIFPPSSEQLTSGGASVVCFLNNFYPKDINVKWKIDGSERQNGVLNSWTDQDSKDSTYSMSSTLTLTKDEYERHNSYTCEATHKTSTSPIVKSFNRNEC | soluble
DIQMTQSPSSLSASVGDRVTITCRSSQSLVHNNANTYLHWYQQKPGKAPKLLIYKVSNRFSGVPSRFSGSGSGTDFTLTISSLQPEDFATYYCSQNTLVPWTFGQGTKVEIKRTVAAPSVFIFPPSDEQLKSGTASVVCLLNNFYPREAKVQWKVDNALQSGNSQESVTEQDSKDSTYSLSSTLTLSKADYEKHKVYACEVTHQGLSSPVTKSFNRGEC | soluble
DIVEAQPSHPDKLLEVPLGRDISGMVQTADLSKMPHLLIAGSTGSGKSVAINGIITGILMQAKPHEVKLMMIDPKMVELNVYNGIPHLLTPVVTNPRKAAQALQKVVQEMEFRYEKFAATGVRNITGYNQLIQQKNAEDGENRPILPFIVVIVDELADLMMVASNEVEDAIIRLAQMARAAGIHMILATQRPSV | not soluble
DKLYPCQCGKSFTHKSQRDRHMSMHLGLRPYGCGVCGKKFKMKHHLVGHMKIHTGIKPYECNICAKRFMWRDSFHRHVTSCTKSYEAAKAEQNTTEA | soluble
DLGTQFLKIGIVKPGIPMDIALNTESRRKTPNVVMIQDGHRTFADAAIGMQVRYPHLVHGQLNDLVGKSTQHPSFELFKRRNTFFEVDDAPKNASSINFKLGGESYTVEALTAMILANAKKFTEEYAQAAEIKDVVITVPVYFTPAERLAVERAAQMAGLTVLQLINDGTAAALSHGIFRRKEIGEKPQRLMVYDMGAAKTTATIVEFKLVKEKYEKQPKMTVLGVGFDRTLGGIEMTNRLRDHLIEMFEKNYKPKTKVNTNRRAMTKFSKEAERLKQVLSANAEHFAQIESAHEDIDAKLKVTREDFNHLISDMESRFGEPIEQALRMAQIPIDDIDQFVLMGAGTRVPKVQEIVQKTIGTKEIGKFLNTDEAVAMGALFQAAHLSKGFKVKPFNIEEKVIFPVEVHFVSKIRDEKTEEITGEKNVVKTLFAANSVYPTHPKTISLTSYSDDFSVALKYGKIESFTKQQVQEIGSLLDNLVDVEISGLSEALKNRSSEESEFKGVKVSFIVDASGIVRVRRAEALFEPKSGLVGSIASTISGLFSSKTEEGEPTTDDSTPQSTEEKTEEKESVKVEDSTPEPEPETPVNSTSEESPKTNETEKNASSGNATEVKEKKKELPSIVRLRITNKYPSAFVPNKYDVQEEKRRMEAFAEKERLASERAAVENELESFNFECSQYLEETEFTDYMADEEKTKLEDSVKRIRAWLEDDVTKDTPTKDFTDNLLELKNVVRSVKKRQEHDKAVPEKLKSLETLLETTFSLTTLGNNVDEEKALFKKEDRDGLKSKLDKLKIWVTDVRKHLDLKKKTDDFNFTGKDIDTKTKNLNREVDRFMKKMKKITTLDDLAKDGKIDIDTIVEEAEKKKAEQDKKKEKKSTKKANESKVENESEIKTEL | not soluble
DMNYTYTSIAAIDGNIKTFVAAPRVGYRWQYDGGRELRVFVGAMYQNVQQELSGDLKSLNLPPQLLGLVENLSPDAGFNVSQSADENWNSVLGFQYAFNKDWEILMEAGFGERETLFFSLGRRF | not soluble
DPFEDLDALGSILEEKYGLLEAHVVFSPTPDYAGITHDLSRYGAEYMHETVKDGDIVGVSWGTTMYQIAQNMQPKQVKGVEVVQLKGGISHSRVNTYSAETIQLFAEAFQTMPRYLPLPVVFDNADVKRMVEKDRHIERIIEMGKQANIALFTVGTVRDEALLFRLGYFNEEEKALLKKQAVGDICSRFFDAKGNICSSAINDRTIGVELQDLRLKERSILVAGGSRKVSSIHGALTGKYANVLIIDQHTARALVNDL | not soluble
DPTAQSLQDISDEQVLVLFEQMLVDMNLNEEKQQPLREKDIVIKREMVSQYLHTSKAGMNQKESSRSAMMYIQELRSGLRDMHLLSCLESLRVSLTSHPVSWVQTFGAEGLASLLDILKRLHDEKEETSGNYDSRNQHEIIRCLKAFMNNKFGIKTMLETEEGILLLVRAMDPAVPNMMIDAAKLLSALCILPQPEDMNERVLEAMTERAEMDEVERFQPLLDGLKSGTSIALKVGCLQLINALITPAEELDFRVHIRSELMRLGLHQVLQELREIENEDMKVQLCVFDEQGDEDFFDLKGRLDDIRMEMDDFGEVFQIILNTVKDSKAEPHFLSILQHLLLVRNDYEARPQYYKLIEECVSQIVLHKNGTDPDFKCRHLQID | soluble
DQEVRLENRITFQLELVGLERVVRISAKPTKRLQEALQPILAKHGLSLDQVVLHRPGEKQPMDLENPVSSVASQTLVLDTPPDAKMSEARS | soluble
DRHVDTHSEVLIFEVIPADDFLQQQLQITVQDRVWHVKRVRYRKQKPMALEETWMPLALFPDLTWQVMENSKYHFIEEVKKMVIDRSEQEIIPLMPTEEMSRLLNISQTKPILEKVSRGYLVDGRVFEYSRNAFNTDDYK | not soluble
DRRFQETLDKIRKEEGYDFAAIAFYESNKPSSPIKWHYVSGNKNNRFKLIILRKGRGLAGTVMKTGKRMVIANVGLALGPEEKIDYPILLSESLTAVLAVPLWYKNQVYGVLLFGQRDGRPLPKIFDNDDIQ | not soluble
DRTTYYSILGLTSNATSSEVHKSYLKLARLLHPDKTKSDKSEELFKAVVHAHSILTDEDQKLRYDRDLKIKGLHTYQPKK | not soluble
DSRGCARWCPQDSSCVNATACRCNPGFSSFSEIITTPMETCDDINECATLSKVSCGKFSDCWNTEGSYDCVCSPGYEPVSGAKTFKNESENTCQDVDECSSGQHQCDSSTVCFNTVGSYSCRCRPGWKPRHGIPNNQKDTVCE | soluble
DSVIVVDNVPQVGPDRLEKLKNVIHKIFSKFGKITNDFYPEEDGKTKGYIFLEYASPAHAVDAVKNADGYKLDKQHTFRVN | soluble
DTRNEAEACLRYVKTKFARTMLGILKATQDNPKETWRLVPLQDFTAESDIDWTQPVAEIDRQLYRKYGLNESEIAFVEEKVRPMD | not soluble
EAHQIRRSGNYQPALWDSNYIQSLNTPYTEERHLDRKAELIVQVRILLKEKMEPVQQLELIHDLKYLGLSDFFQDEIKEILGVIYNEHKCFHNNEVEKMDLYFTALGFRLLRQHGFNISQDVFNCFKNEKGIDFKASLAQDTKGMLQLYEASFLLRKGEDTLELAREFATKCLQKKLDEGGNEIDENLLLWIRHSLDLPLHWRIQSVEARWFIDAYARRPDMNPLIFELAKLNFNIIQATHQQELKDLSRWWSRLCFPEKLPFVRDRLVESFFWAVGMFEPHQHGYQRKMAATIIVLATVIDDIYDVYGTLDELELFTDTFKRWDTESITRLPYYMQLCYWGVHNYISDAAYDILKEHGFFCLQYLRKSVVDLVEAYFHEAKWYHSGYTPSLDEYLNIAKISVASPAIISPTYFTFANASHDTAVIDSLYQYHDILCLAGIILRLPDDLGTSYFELARGDVPKTIQCYMKETNASEEEAVEHVKFLIREAWKDMNTAIAAGYPFPDGMVAGAANIGRVAQFIYLHGDGFGVQHSKTYEHIAGLLFEPYA | soluble
EAIKWDKAPCRFCGTGCGVLVGTQQGRVVACQGDPDAPVNRGLNCIKGYFLPKIMYGKDRLTQPLLRMKNGKYDKEGEFTPITWDQAFDVMEEKFKTALKEKGPESIGMFGSGQWTIWEGYAASKLFKAGFRSNNIDPNARHCMASAVVGFMRTFGMDEPMGCYDDIEQADAFVLWGANMAEMHPILWSRITNRRLSNQNVTVAVLSTYQHRSFELADNGIIFTPQSDLVILNYIANYIIQNNAINQDFFSKHVNLRKGATDIGYGLRPTHPLEKAAKNPGSDASEPMSFEDYKAFVAEYTLEKTAEMTGVPKDQLEQLAQLYADPNKKVISYWTMGFNQHTRGVWANNLVYNLHLLTGKISQPGCGPFSLTGQPSACGTAREVGTFAHRLPADMVVTNEKHRDICEKKWNIPSGTIPAKIGLHAVAQDRALKDGKLNVYWTMCTNNMQAGPNINEERMPGWRDPRNFIIVSDPYPTVSALAADLILPTAMWVEKEGAYGNAERRTQFWRQQVQAPGEAKSDLWQLVQFSRRFKTEEVWPEDLLAKKPELRGKTLYEVLYATPEVSKFPVSELAEDQLNDESRELGFYLQKGLFEEYAWFGRGHGHDLAPFDDYHKARGLRWPVVNGKETQWRYSEGNDPYVKAGEGYKFYGKPDGKAVIFALPFEPAAEAPDEEYDLWLSTGRVLEHWHTGSMTRRVPELHRAFPEAVLFIHPLDAKARDLRRGDKVKVVSRRGEVISIVETRGRNRPPQGLVYMPFFDAAQLVNKLTLDATDPLSKETDFKKCAVKLEKV | soluble
EDNSRYTHFLTQHYDAKPQGRDDRYCESIMRRRGLTSPCKDINTFIHGNKRSIKAICSQKNVACKNGQTNCYISKSSFQVTTCKLHGGSPWPPCQYRATAGFRNVVVACENGLPVHLDQSIFR | soluble
EEIFCHVYITEHSYVSVKAKVSSIAQEILKVVAEKIQYAEEDLALVAITFSGEKHELQPNDLVISKSLEASGRIYVYRKDLADTLNPFAEN | soluble
EETDESNDMRPLFDTILKYTPAPSGSADETLQLQISQLDYDNYTGRLGIGRILNGRIKPGQTVAVMNHDQQIAQGRINQLLGFKGLERVPLEEAEAGD | not soluble
EETIPLQTLRCYNDYTSHITCRWADTQDAQRLVNVTLIRRVNEDLLEPVSCDLSDDMPWSACPHPRCVPRRCVIPCQSFVVTDVDYFSFQPDRPLGTRLTVTLTQHVQPPEPRDLQISTDQDHFLLTWSVALGSPQSHWLSPGDLEFEVVYKRLQDSWEDAAILLSNTSQATLGPEHLMPSSTYVARVRTRLAPGSRLSGRPSKWSPEVCWDSQPGDEAQPQNLECFFDGAAVLSCSWEVRKEVASSVSFGLFYKPSPDAGEEECSPVLREGLGSLHTRHHCQIPVPDPATHGQYIVSVQPRRAEKHIKSSVNIQMAPPSLQVTKDGDSYSLRWETMKMRYEHIDHTFEIQYRKDTATWKDSKTETLQNAHSMALPALEPSTRYWARVRVRTSRTGYNGIWSEWSEARSWDTES | soluble
EIGEPDVTDATLGSVYSEIISPVKDCILTVAKAVSFNPGGKDNTDAVEVLTELNTKVERAALNQPILTTKTER | soluble
